Patent US20240335558A1, “ISOLATED POLYPEPTIDE AND USE THEREOF” (GLYCO-THERAPY BIOTECHNOLOGY CO., LTD., priority 2021, published 2024)

How the values were obtained:
Assay type in all cases: biochemical
[1] = system: Trastuzumab-G2F; assay: Transfer of GDP-FAmP4Biotin to Trastuzumab-G2F by different HpFTs (% of conversion by MS); details: donor GDP-FAmP4Biotin 1 mM, enzyme 0.5 mg/mL, 30° C., 3 h; FIG. 1
Procedure: (§1) To 40 mM Tris-HCl (pH 7.5) buffer were added Trastuzumab-G2F (2 mg/mL final), GDP-FAmP4Biotin (1 mM final), MgCl2 (20 mM final), and different HpFT enzymes (HpFT-4HR, HpFT-4HR(M4), HpFT-4HR(M7), HpFT-6HR, HpFT-3HR, HpFT-2HR, HpFT-1HR, or HpFT-0HR) (0.5 mg/mL final) in sequence, and the resulting mixed solution was allowed to react at 30° C. for 3 h. Three parallels were set up for each group. After the reaction time point was reached, to the reaction solution was added 10 mM LacNAc (N-acetyl-D-lactosamine), and the reaction was terminated by a desalting column (Zeba™ Spin Desalting Columns/2 ml/40K, Thermo Fisher Scientific), and finally mass spectrometry was carried out and % of conversion was calculated. % of conversion=(MAR0 peak intensity*0+MAR1peak intensity*1+MAR2 peak intensity*2+MAR3 peak intensity*3+MAR4 peak intensity*4)/4* (MAR0 peak intensity+MAR1 peak intensity+MAR2 peak intensity+MAR3 peak intensity+MAR4 peak intensity)*100%.

[2] = system: Trastuzumab-(Fucα1,6)(Galβ1,4)GlcNAc; assay: Transfer of GDP-FAmP4Biotin to Trastuzumab-(Fucα1,6)(Galβ1,4)GlcNAc by different HpFTs; details: donor GDP-FAmP4Biotin 1 mM, enzyme 0.5 mg/mL, 30° C., 1 h; FIG. 2
Procedure: as §1, with “added Trastuzumab-(Fucα1,6)(Galβ1,4)GlcNAc” for “added Trastuzumab-G2F”, “HpFT-2HR, HpFT-1HR” for “HpFT-2HR, HpFT-1HR,”, “for 1” for “for 3”, “mM LacNA,” for “mM LacNAc (N-acetyl-D-lactosamine),”, “peak intensity*2)/2*” for “peak intensity*2+MAR3 peak intensity*3+MAR4 peak intensity*4)/4*”, “peak” for “peak intensity+MAR3 peak intensity+MAR4 peak”

[3] = system: Trastuzumab-G2F; assay: HpFT-2HR and HpFT-4HR transferring GDP-FAmP4Biotin or GDP-FAzP4Biotin to Trastuzumab-G2F; details: enzyme 0.5 mg/mL, 30° C., 6 h, FIG. 6(A)
Procedure: as §1
To 40 mM Tris-HCl (pH 7.5) buffer were added Trastuzumab-G2F (2 mg/mL final), GDP-FAmP4Biotin or GDP-FAzP4Biotin (1 mM final), MgCl2 (20 mM final), and HpFT-2HR or HpFT-4HR (0.5 mg/mL final) in sequence, and the resulting mixed solution was allowed to react at 30° C. for 6 h. Three parallels were set up for each group. After the reaction time point was reached, to the reaction solution was added 10 mM LacNAc, and the reaction was terminated by a desalting column (Zeba™ Spin Desalting Columns/2 ml/40K, Thermo Fisher Scientific), and finally mass spectrometry was carried out and % of conversion was calculated. % of conversion was calculated according to Example 17.

[4] = system: Durvalumab-(GalNAzβ1,4)GlcNAc; assay: HpFT-2HR and HpFT-4HR transferring GDP-FAmSucMMAE to Durvalumab-(GalNAzβ1,4)GlcNAc; details: donor 1 mM, enzyme 0.5 mg/mL, 30° C., 3 h and 6 h; FIG. 8B
Procedure: as §1, with “added Trastuzumab-(Fucα1,6)(Galβ1,4)GlcNAc” for “added Trastuzumab-G2F”, “HpFT-2HR, HpFT-1HR” for “HpFT-2HR, HpFT-1HR,”, “for 1” for “for 3”, “mM LacNA,” for “mM LacNAc (N-acetyl-D-lactosamine),”, “peak intensity*2)/2*” for “peak intensity*2+MAR3 peak intensity*3+MAR4 peak intensity*4)/4*”, “peak” for “peak intensity+MAR3 peak intensity+MAR4 peak”
To 40 mM Tris-HCl (pH 7.5) buffer were added Trastuzumab-(GalNAzβ1,4)GlcNAc or Durvalumab-(GalNAzβ1,4)GlcNAc (2 mg/mL final), GDP-FAmSucMMAE (1 mM final), MgCl2 (20 mM final), and HpFT-2HR or HpFT-4HR (0.5 mg/mL final) in sequence, and the resulting mixed solution was allowed to react at 30° C. for 3 h and 6 h. Three parallels were set up for each group. […]

B1: HpFT-2HR: H. pylori α-1,3-fucosyltransferase variant: catalytically active domain, two heptapeptide repeat sequences and C-terminus fused His tag (protein)
chain: MFQPLLDAFIESASIEKMVSKSPPPPLKIAVANWWGDEEIKEFKKSVLYFILSQRYAITLHQNPNESSDLVFSNPLGAARKILSYQNTKRVFYTGENESPNFNLFDYAIGFDELDFNDRYLRMPLYYAHLHYEAELVNDTTAPYKLKDNSLYALKKPSHHFKENHPNLCAVVNDESDLLKRGFASFVASNANAPMRNAFYDALNSIEPVTGGGSVRNTLGYKVGNKSEFLSQYKFNLCFENSQGYGYVTEKILDAYFSHTIPIYWGSPSVAKDFNPKSFVNVHDFNNFDEAIDYIKYLHTHPNAYLDMLYENPLNTLDGKAYFYQDLSFKKILDFFKTILENDTIYHNNPFIFYRDLHEPLISIDDLRVNYDDLRVNYLEHHHHHH
modifications: Catalytically active domain of Helicobacter pylori Alpha-(1,3)-fucosyltransferase (GenBank No.AAD07710.1) with 2 heptapeptide repeats and a C-terminal His tag
**Q.** How did the “catalytic activity among the HpFT variants” value [1] turn out when B1 was run?
**A.** highest catalytic activity

**Q.** And the “catalytic activity as compared with HpFT-4HR (% of conversion)” value [1]?
**A.** significantly improved catalytic activity

**Q.** What about the “catalytic activity as compared with HpFT-4HR (% of conversion)” value [2] of the same molecule?
**A.** significantly improved catalytic activity

**Q.** And the “activity in catalyzing the transfer of GDP-FAmP4Biotin relative to transfer of GDP-FAzP4Biotin” value ([3]; donor 1 mM)?
**A.** significantly higher

**Q.** And the “activity in catalyzing the transfer of GDP-FAmP4Biotin, as compared with HpFT-4HR” value ([3]; donor GDP-FAmP4Biotin 1 mM)?
**A.** significantly improved activity

**Q.** What about the “activity in catalyzing the transfer of GDP-FAzP4Biotin, as compared with HpFT-4HR” value ([3]; donor GDP-FAzP4Biotin 1 mM) of the same molecule?
**A.** significantly improved activity

**Q.** What about the “activity in catalyzing the transfer of GDP-FAmSucMMAE, as compared with HpFT-4HR” value [4] of the same molecule?
**A.** significantly improved activity
